Results taken from paper PMC5368077, “Structural and functional insights into thermally stable cytochrome c′ from a thermophile” (Protein Science : A Publication of the Protein Society, 2017).

Key:
[1] = biological target: PHCP F11T/T18F/F71D triple variant (Hydrogenophilus thermoluteolus); assay: AUC; sedimentation velocity, 5 μM protein, 10 mM Tris-HCl (pH 7.5) with 100 mM NaCl, 20°C, 42,000 rpm, c(s) model in SEDFIT; n = 1
[2] = biological target: T1, PHCP (Hydrogenophilus thermoluteolus cytochrome c') (Hydrogenophilus thermoluteolus, UniProt F7J213); assay: visible absorption spectroscopy; type: binding; settings: reduced (dithionite) protein 6 uM; 0.5% (v/v) ligand; 10 mM potassium phosphate pH 7.0; 25 C; isomer of butyl group not stated
T1 construct: gene cytc; mature protein, N-terminal DALKP; authentic protein from H. thermoluteolus cells for crystal
T1 sequence (F7J213 20-154): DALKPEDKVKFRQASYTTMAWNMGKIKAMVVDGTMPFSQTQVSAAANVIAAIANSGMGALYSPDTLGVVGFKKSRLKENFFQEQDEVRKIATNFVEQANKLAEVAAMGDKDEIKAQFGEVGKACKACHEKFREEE

[3] = biological target: PHCP T17E/A20G/L76V triple variant (Hydrogenophilus thermoluteolus); assay: AUC; sedimentation velocity, 5 μM protein, 10 mM Tris-HCl (pH 7.5) with 100 mM NaCl, 20°C, 42,000 rpm, c(s) model in SEDFIT; n = 1
[4] = biological target: recombinant PHCP wild-type (Hydrogenophilus thermoluteolus); assay: as above
[5] = biological target: PHCP F71D variant (Hydrogenophilus thermoluteolus); assay: AUC; sedimentation velocity of the single variants, data not shown; the same analysis as for the wild-type
[6] = biological target: PHCP A20G variant (Hydrogenophilus thermoluteolus); assay: as above
[7] = biological target: PHCP T18F variant (Hydrogenophilus thermoluteolus); assay: as above
[8] = biological target: PHCP F11T variant (Hydrogenophilus thermoluteolus); assay: as above
[9] = biological target: PHCP L76V variant (Hydrogenophilus thermoluteolus); assay: as above
[10] = biological target: PHCP T17E variant (Hydrogenophilus thermoluteolus); assay: as above

PHCP F11T/T18F/F71D triple variant (natural protein)
population of the dimer species [1]: 97.7% | stoichiometry N [1]: 2

[C-]#[N+]CCCC [butyl-isocyanide]
visible absorption spectroscopy [2]: PHCP is able to bind CO, NO, and large ligands such as butyl‐isocyanide and imidazole

PHCP T17E/A20G/L76V triple variant (natural protein)
population of the dimer species [3]: 91.1% | stoichiometry N [3]: 2

recombinant PHCP wild-type (natural protein)
population of the dimer species [4]: 99.9% | stoichiometry N [4]: 2

PHCP F71D variant (natural protein)
stoichiometry N [5]: 2

PHCP A20G variant (natural protein)
stoichiometry N [6]: 2

PHCP T18F variant (natural protein)
stoichiometry N [7]: 2

PHCP F11T variant (natural protein)
stoichiometry N [8]: 2

PHCP L76V variant (natural protein)
stoichiometry N [9]: 2

PHCP T17E variant (natural protein)
stoichiometry N [10]: 2
